This data set is described as follows: soluble on expression in E. coli; label from the status in PepcDB or PDB records.
In the case of “MSLSSPRIIATYHLASDADLVAERAKGLAIEQSVECPLAAVGDPVILDTIVGRVEDIAELTPGRYAVRIGLAAATAPAEPGQLINMLFGNSSMQQDVTLVDVELPPSYLAAFGGPRLGLAGLRALTGTQDRALTASALKPQGLSPAALARIAGQLARGGVDVIKDDHGIADQAYSPFAARVEAVGRAVQEANVARDGHSLYAPNLSGTLDDMRRQLDLAREQGIAAVMVAPMIVGLANFHAVVKAAAGMVVIAHPALSGVTRIAPPLLLGKLFRLFGADATIFPNAGGRFGFSTETCLQLARAGRDPWGALEPCMPVPAGGLTADRVAELLQFYGHDVMLLIGGGLLSARERLTEEAARFVNEVAAHGKAEGHHHHHH”, the “soluble on expression in E. coli” value was “soluble”.

Consider “MSLSSQPRFIHLRTHTDFSMIDSIVKVKPLVKACAANEMVAMGLTDFTNFCGVVSFYSEMLSSGMKPIIGADVKVKSPLCGDEYFDLTLLAKNNEGYRNITLLLSKAYQRGYNDLPYIDQDWLIEHRDGVIILSGGTQGDVGKKLLKENVAEIESAVAFYQEFFADHFYLALSRTGRPNEERYIQAALKLAERCDLPLVATNDVMFLNTEDFEAHEIRVAIHDGYTLDDPKRPKCYTSQQYFRSEEDMCKLFADEGHHHHHH”, for which the “soluble on expression in E. coli” value is “soluble”.

Regarding “MSLSSTNDTIRRLQRDLLFLQNELRFEKFVRQQHLQNIGKLHREHILDMAVESERQKLLLTNKRYKAQIELLNSEIDKHRSESQAALNRRVKWENDFNNKIKALREEKKAWKSEESELKSSIESLISQLESIRNSQIDIAFSKNQLELKLQLYETKLKEYEQHLSCVNISKKQVSSSSDTSFGNTKMDSSMILSNSEAVSDEQERELIESEKHRMKLESENLHLQANIELLKKDLEAINVVYEAKIFDLEKRLSSEANAPELHNPVNLNYDAQLSKISEIKENYDELLTRYRELEGKFLESQAEVEELKNFQKPLVDTGSSIHSSPGLQQSKFIIRNDSLHPKVGPPRRQSTDTSRSTFRQYEGHHHHHH”, the “soluble on expression in E. coli” value is given as “soluble”.

With “MSLSTIREVAKLANVSIATVSRVLNNDTKYKMTEETKNRVLDAVTQLNYIPITTPRKKMTVTNSNICKDAKIGCILRVTKKGYNDPYYMSILAGVETQLREVGIELSFIKSAPILQDKSHLASTFSDSLDGLILMEPLNEDIYHYIKKRVPHVVGIDTLRDDIDDVGYDHLENGILATQHLIEKGHKEIGFIGGSGESQDIKDSKRYQGYVIAMHKAGLPIQKKWIIDCGWNEDECVAKVDALCKSNHYPTAFFAASDLMAMAAMKSFYTNGISVPKRVAVIGMSDIEMSQYSNPPLTTYHVPKEEIGRVATNLLLARIQGYETLPQKIILPTTFVERSSTEGHHHHHH”, the “soluble on expression in E. coli” value is “soluble”.

“MSLSVQREDVDIKLIAIDMDGTLLNDEQLISDENRKAIREAEDKGVYVVISTGRTLMTCRELAESLKLSSFLITANGSEIWDSNFNLVERKLLHTDHIQMMWDLRNKHNTNFWASTVNKVWRGEFPENITDHEWLKFGFDIEDDDIRNEVLEELRKTKSSEITNSSPTNIEVNALGINKAAAPCQGYGKLGFTMENVMAMGDSLNDIAMIKEAGLGVAMGNAQDIVKETADYITDTNIEDGVAKAIRHWVLEGHHHHHH”: the “soluble on expression in E. coli” value is given as “soluble”.

For the sequence “MSLSVRVDYALVGRELEAREAVCLVFDGSDGRLSSISSSSSCPESSPKFTIAVPPSVNAHIHSSDVQWPEVGNDLSLEELVAPPRGLKHLLLQQAGERACAEAAVGVYRALGRMVVRAAADFREPAAGGCLPVREILATLGGLYTRVVLMGRPGDPYGLEGCDGIGLNSPLDVDPKRMRLLKKSGMRIHAHVAETREMRLEGDLEAALDIGVDTVIHGTHLSREDLELLREHGVTLVLSPRSNMWHGVGLPPVAEAYRVGVKIAFGTDNAAWNMLDPWDEARQAMLVARLQGVKDPGLPHYILKGLLSWGYEALGMEPPALAEGADMCSVALMRLEGYEAGLFRRSFSRYYTLLKIARGDLLQPVCTISGGLLEPAEGHHHHHH”, the “soluble on expression in E. coli” value is on record as “soluble”.

As for “MSLSVSEQLFPLTIIHLNDFHARFEETNTVSTRCKPDEGERCIGGYARVVSRVKSLQREYADRNPIYLNAGDNFQGTLWYSLLRWNVTAHFLNLLPADVMTLGNHEFEHGIGGLVPFLDVIDSPVVVTNIDDREEPTLQGKYTKSVVLERGGRKIGVVGVIHHLTNTMGMTERLRFLDEVEQLRMEIGRLKEEGVQHIVVLSHCGLEIDRIIARELPDVDVVVGGHSHTFLYNGTADGFPDDPEDTYPIVVEHPEGRTTLIVQAASYAKYVGRITLYFDEEGNIREWEGNPEFLDSSVPQDEEVLAQLAPWREQVNVQANREGHHHHHH”, the “soluble on expression in E. coli” value was “soluble”.

Take “MSLSYEYFPGFYDRLMDSELYDEWLEFSADFIGDAPKKVLDLACGTAEFALRLSFSGHQVTGVDLSKEMVAVAKEKVAAAEIDLPIIEQDMSKLALKQTFDVVTCFCDSLNYLETEQALEATIQAVSAHLEPNGLFLFDVHSVFKIEQGFKDYSYGDSDEEISTIWNSFPGEHPHSIEHELTFYILGEDDTYNRVDELHKERTYPIATYENLLKKFGFTKIDIYADFSHEKPNKTSERIFFAARKEGHHHHHH”: the “soluble on expression in E. coli” value is on record as “soluble”.

Consider “MSLSYTTQQIIEKLRELKIVPVIALDNADDILPLADTLAKNGLSVAEITFRSEAAADAIRLLRANRPDFLIAAGTVLTAEQVVLAKSSGADFVVTPGLNPKIVKLCQDLNFPITPGVNNPMAIEIALEMGISAVKFFPAEASGGVKMIKALLGPYAQLQIMPTGGIGLHNIRDYLAIPNIVACGGSWFVEKKLIQSNNWDEIGRLVREVIDIIKEGGSHHHHHH”, for which the “soluble on expression in E. coli” value is listed as “soluble”.

As for “MSLTAPLEWKQANFLSISDSHGWLLGHQHSTWPEPNYSGNYGSFASFVIHMRKIADEKGVDLLLIDAGDHHDGSGLVSSSPDSASLAEDIFSMISYDVITIGNHELYHYADALDIYENHERWGGRYVTSNVNITVKREGEWQSVPIGQTHLKFTTKQGYNVTAFGVIFDFKAHDKGITVQKPSKLVHEPWFQEAIRDAPDYFILAGHMPVRGETAEFAPVFDAIRDIHPQVPIFLFGGHTHVRDCVQYDERSIGVVPGKYLETVAFTSSSLPSSSGDDRPLDVARSYQWHTNQTSYTFDTEGHHHHHH”, the “soluble on expression in E. coli” value is listed as “soluble”.

“MSLTDINLKGGKLSIEQLNTIFETIPVEFDFIDENDIIRWSSANRHRLFKRTDADLGKHVLEVHPGHSQNHVKQVLHDMHSGDRDSISIMIKHHGQPVNIAFYALRDDQNKYLGCVEVTQDVSKQQTKGSFWRNIMQVLHKKEGHHHHHH”: the “soluble on expression in E. coli” value is given as “soluble”.

With “MSLTDVEEQQLTVLKDPNCGCCEKWLQALPDSFSVSVQHPNNLTQRKRDSGISAEVQSCHTAISSNGYVFEGHVPPTLVSHYLAGKKSENGIGLTVPGMPVGSVGMEMGTRFQPYTVYEIKKDGSITPYQQIASLEQQQALSNEGLEGHHHHHH”, the “soluble on expression in E. coli” value is recorded as “soluble”.

As to “MSLTDVLTATYELYLAEGESPEGKARGIALEQTVEMPADCLPGDIAERMVGRIRTLEPRADHWVLEIDYPLAAIGGELTQCLNLLFGNISLQSGIRLVQVAWPPSLLRRWGGPGLGVSGLRARLDVGARPLLCAALKPMGLSAPALAARCAAFARGGVDLIKDDHGLADQPDAPFAERLNACQDAVRQANRRSGGRSLYLPNVTAAPQALGERLAAARDAGCEMVLISPWLTGLETLRWARDEYGLALMAHPAMTGGLFLPRHGISPALLLGELFRIAGADAVIYPNVGGRFRFSADTCQAINHALRRPLEGLASAWPTPGGGVDVKRAGHWKQAYGPDTILLIGGSLYAQGDIEAASRALMQAIRDEGHHHHHH”, the “soluble on expression in E. coli” value is “soluble”.

Regarding “MSLTEIGIVAVGGYNEMGRNMTAIIIGEDIVILDMGLRLDRVQIHEDVEIDKMHSLELIEMGAIPDDTIMKEINGTVRAIVCTHGHLDHIGAIPKLAHRYNAPILATPYTAAIIRQQIESERKFEVCNRVIPLQAGGTYQVTEDISIEFIRVQHSIIDCVLAAVHTPAGAVLYACDFKLDRTPTMGEAPDFDRFKSLGKEGVIAMITESTNAGRSGKTPSEQIAKDMVRDVLLGTEESGVGMIVTTFASHIARLKAIIEAAEEMGRIPVLMGRSMERYVGAARDIGYLDLPSNVEIYGTRKDVDRAFKRIMQEGKNKYLPIVTGHQGEPGSILVRVANGETPYTIDPGDRIIFSANVIPSPMTQANRYALETKLRMKGGRIYDDVHVSGHAYREDHWELLRMVNPEHVIPAHGDMEMHGHYIEMAEDAGYVLGDTVHLLRNGEVLYIEEEGHHHHHH”, the “soluble on expression in E. coli” value was “soluble”.

Consider “MSLTEWLTIFDSERNTLGKKLRDEVHRDGNWHETFHCWFVEKDAEDMFLYFQLRSKNKKEAPLIWDITSAGHIMHDEDVQIGGLREIEEELGLSFQTTDLAYKGIFTIDYEISNLTDREFCHMYFHNVINPLPFAPGEEVDDVMKIHATSFLQLLKREISSFTATSVLSNKSITITFSDIYPYDFAYYEFVVEQGKELLKNNDEGHHHHHH”, for which the “soluble on expression in E. coli” value is recorded as “soluble”.

Regarding “MSLTFIRKVETWITNSKQTEDGWSQIKPFIFLKLTNSDGFEGWGEAFSLPAREKGIVEIIHNLMSSLSYVKDITPDRFYTESNLIADGHRGIDFSAATSAIEMSLWDIEGKKEKKPLYKILSKDYREKVPVYATIWSEDFKNDENLSSRCIEILSDGYGGIKIYPLQNRTVEQAAKCVSKIRDVLGYKIPLMLDLACPKDTNISLKLASLVEEFRPYWFEEPVDGEATRALKDIREKTSLRIVSGEKQCGLNHFIETLALDAVDIFNPDISGVGGIIDMIKIIKLSHEKKVTVSPHCWNSMSIAASAMVHVCMSFTNTEMAEFFPEYIPYSLKFSNQNYEIKDGFVKIEDNEGLGINIDTKLLMEDTSSYRETELTEGHHHHHH”, the “soluble on expression in E. coli” value is “soluble”.

Turning to “MSLTGETLFGTIELVGYRDNYGQIKIPRRPLNPGEKVYGVDYEFLSKFYKFDENTSINIGNLIGYDKGSNIVPVYLDVNKLVTEHLAVLAMTGSGKSYTVGRIIERLVAEMNGTVVVFDVHGEYGKAFEKGEIHFNNNLDFIEDEREKKSIQRIQENLIKMQNAGGGIKVYTPQIDSFDYKYSGKNHHLALQFDRFDMDDLSSILPGLTEAQERVLDVAIRYWKAKYNHPPRDIQDLTYLLSDEQGLEELKNWDNLTEGEAKALNNRSAAVASMKLTRVINEAKSFYTRAIGEPTDIYDMIGEKGNSVGRLVIIDLQGLSDDAKQIITALISSEIMRAASDKKRQIRPCFLVYEEGHNFAPAGIPSISKKIIKKIAAEGRKFGVGFAIISQRPSKLDPDVTSQCNTIITMRLKNPDDQRFIAKTSDMFSSSDIEELPSLSTGEALINGRSIPAPLLVKVGTKALIHGGESPEVIKEWGVFNGEGHHHHHH”, the “soluble on expression in E. coli” value is recorded as “not soluble”.

Regarding “MSLTGNAQAATIADPSTLVVDTVGPVLTIGLNRPKKRNALNDGLMAALKDCLTDIPDQIRAVVIHGIGDHFSAGLDLSELRERDATEGLVHSQTWHRVFDKIQYCRVPVIAALKGAVIGGGLELACAAHIRVAEASAYYALPEGSRGIFVGGGGSVRLPRLIGVARMADMMLTGRVYSAAEGVVHGFSQYLIENGSAYDKALELGNRVAQNAPLTNFAVLQALPMIAEANPQTGLLMESLMATVAQSDQEAKTRIRAFLDHKTAKVREGHHHHHH”, the “soluble on expression in E. coli” value was “soluble”.

“MSLTHPDFTILYVDNPPASTQFYKALLGVDPVESSPTFSLFVLANGMKLGLWSRHTVEPKASVTGGGGELAFRVENDAQVDETFAGWKASGVAMLQQPAKMEFGYTFTAADPDSHRLRVYAFAGEGHHHHHH”: the “soluble on expression in E. coli” value is “not soluble”.

Turning to “MSLTIDRIRALVSEDFNAVNNLIIDKIQSQVGLIQDLSQHIVESGGKRLRPLVVLLASNACGYKGKDHISLAAMVEFFHTATLLHDDVIDESTLRRGRQTANSIWGSKASVLVGDYLFTQSVNLMVEVGIKEILNLLANTSHQITCGEVKQLANRHNPALTLDDYFDVIRAKTALLFAAAACIGPILTNAPIELRNSLYNYGLHLGNAFQLIDDALDYCSDAATLGKNIGDDLADGKATLPLIHALQNGNATQQQQIRESLMKGSLSHLPDILIAIEQTEAIPFTKRIAAQEVDSALSALEILPDSVYKEALVDLAKFALERNYEGHHHHHH”, the “soluble on expression in E. coli” value is “soluble”.
